According to article doi:10.1101/2022.04.15.488344 (bioRxiv, 2022):

Biological target: the molecule itself
Experiment: crystal structure

B1: ERα ligand binding domain (LBD) (305–555) with a Y537S mutation (domain or fragment, UniProt P03372 305-555, looked up)
chain: SLALSLTADQMVSALLDAEPPILYSEYDPTRPFSEASMMGLLTNLADRELVHMINWAKRVPGFVDLTLHDQVHLLECAWLEILMIGLVWRSMEHPGKLLFAPNLLLDRNQGKCVEGMVEIFDMLLATSSRFRMMNLQGEEFVCLKSIILLNSGVYTFLSSTLKSLEEKDHIHRVLDKITDTLIHLMAKAGLTLQQQHQRLAQLLLILSHIRHMSNKGMEHLYSMKCKNVVPLSDLLLEMLDAHRLHAPTSR
- stoichiometry N: 2
